Data on 3 molecules can be found in patent publication US20040047873A1 (published 2004).

Sequences and labels used below:
B1: soluble trimeric CD154 (tCD154) (ligand, human;mouse, UniProt P35247 223-257, looked up)
chain: DVASLRQQVEALQGQVQHLQAAFSQYKKVELFPNGLDKVEEEVNLHEDFVFIKKLKRCNKGEGSLSLLNCEEMRRQFEDLVKDITLNKEEKKENSFEMQRGDEDPQIAAHVVSEANSNAASVLQWAKKGYYTMKSNLVMLENGKQLTVKREGLYYVYTQVTFCSNREPSSQRPFIVGLWLKPSSGSERILLKAANTHSSSQLCEQQSVHLGGVFELQAGASVFVNVTEASQVIHRVGFSSFGLLKL
notes: range 223-257;range 50-260; Expressed in CHO-K1 with the rat CD4 leader (secretion signal, left out here); Non-covalent homotrimer, apparent mass ~100 kDa by size exclusion; also called trimeric form of CD154
B2: murine CD40-human Fc fusion protein (Fc fusion, mouse, UniProt P27512 20-193, looked up)
chain: LGQCVTCSDKQYLHDGQCCDLCQPGSRLTSHCTALEKTQCHPCDSGEFSAQWNREIRCHQHRHCEPNQGLRVKKEGTAESDTVCTCKEGQHCTSKDCEACAQHTPCIPGFGVMEMATETTDTVCHPCPVGFFSNQSSLFEKCYPWTSCEDKNLEVLQKGTSQTNVICGLKSRMR
notes: captured on immobilised anti-human Fc mAb in the BIAcore assay; also called CD40-Fc; not shown: human immunoglobulin Fc

Experiment [1] concerns the target B2. As to the kind of experiment: BIAcore; dissociation half-time from captured CD40-Fc. As for the experimental part: (§1) The lower activity of tCD154 when compared with SP-D-CD154 could be the result of its relatively low affinity for CD40. To address this question the inventors analysed the affinity and kinetics of the interaction between tCD154 or SP-D-CD154 and CD40 using the BIAcore™ biosensor, which measures protein-protein interaction in real time. A murine anti-human Fc mAb was covalently coupled to the dextran matrix, and either tCD154 or SPD-CD154 was then injected over this mAb in order to determine the level of non-specific binding. Specific binding was determined by first injecting murine CD40-human Fc fusion protein which bound to the immobilised anti-human Fc mAb, and then injecting (31.3-250 nM) tCD154 or SPD-CD154 (FIG. 6). Co-injection of the anti-CD154 mAb MR1 and tCD154 or SP-D-CD154 completely abolished the binding of tCD154 or SP-D-CD154 to CD40 (data not shown). […] SP-D-CD154 can potentially bind to twelve CD40 molecules, compared to three molecules with tCD154 [9], implying that the extent of receptor oligomerisation may influence the signals generated by CD40. Within the X-shaped SP-D molecule, the adjacent arms are separated by a distance of either ˜20 nm or ˜90 nm (FIG. 1A). Thus if all four arms of SP-D-CD154 engage cell surface-expressed CD40, two clusters are likely to form each with six closely associated CD40 molecules.
For orientation: In SPR one partner is held on a chip, and binding of the other changes the refractive index at the surface.

Experiment [2] deals with T1, CD40 on murine splenic B cells (mouse, UniProt P27512 20-289).
T1 sequence (looked up): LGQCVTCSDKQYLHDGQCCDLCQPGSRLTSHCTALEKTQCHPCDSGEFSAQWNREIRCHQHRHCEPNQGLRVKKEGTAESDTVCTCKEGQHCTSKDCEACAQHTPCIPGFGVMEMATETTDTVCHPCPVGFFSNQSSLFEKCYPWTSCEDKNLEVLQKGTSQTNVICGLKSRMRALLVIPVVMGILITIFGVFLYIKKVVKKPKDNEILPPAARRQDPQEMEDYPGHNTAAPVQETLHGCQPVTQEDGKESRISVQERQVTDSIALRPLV
As to the kind of experiment: cell-based or functional assay.

For experiment [3], the target named is B2. Description: BIAcore; CD40-Fc captured on anti-human Fc mAb, SP-D-CD154 injected at 31.3-250 nM; apparent affinity.
Experiment [4] has as its target B2. As to the kind of experiment: BIAcore; CD40-Fc captured on anti-human Fc mAb, SP-D-CD154 injected.
Experiment [5] deals with B1. Description: BIAcore; CD40-Fc captured on anti-human Fc mAb, tCD154 injected at 31.3-250 nM; apparent affinity. As for the experimental part:
as §1

For experiment [6], the target named is B1. As to the kind of experiment: BIAcore; CD40-Fc captured on anti-human Fc mAb, tCD154 injected. As for the experimental part:
as §1

“SP-D-CD154 dodecameric fusion protein between lung surfactant protein-D and CD154 (from UniProt P35247 1-257; P27548 50-260) (ligand)” returned a t1/2 in experiment [1] of 1.38 h. In experiment [2], this molecule had a fold increase in the level of CD86 on B cells against untreated cells (5 nM, 24 h) of 3.6 fold; a fold increase in the level of ICAM-1 on B cells against untreated cells (5 nM, 24 h) of 3.8 fold; an in vitro B cell proliferation assay of 2 µg/mL; a mean forward scatter of B cells (size and activation status) of 409. For the same molecule, the proliferation of murine splenic B cells ([3H] thymidine incorporation) in experiment [2] amounted to 8 fold. In addition, the Kd in experiment [3] worked out at 1.3 nM. For the same molecule, in experiment [4], the koff – broadly, the first-order rate constant of dissociation – is 0.00014 s⁻¹.

In the case of B1, the t1/2 in experiment [1] is about 1.07 h. Besides, in experiment [2], the “fold increase in the level of CD86 on B cells against untreated cells (5 nM, 24 h)” value was determined as 1.4 fold and the “fold increase in the level of ICAM-1 on B cells against untreated cells (5 nM, 24 h)” value came to 2 fold.

Take B2: in experiment [5], the Kd came to 2 nM. For the same molecule, the koff in experiment [6] turned out to be 0.00018 s⁻¹.
